Columns and labels:
[1] = Melting temperature (Tm) by UV absorption at 260 nm; type: physicochemical; conditions: phosphate buffer solution; average of at least two independent measurements
Protocol: The Tm value was determined by recording the change in UV absorption at 260 nm of DNA/RNA in phosphate buffer solution as the temperature increased.
Table 6 Melting temperature (Tm) test instrument parameters
The melting temperature (Tm) was calculated from the first derivative of the smoothed heating curve, and the reported value was the average of at least two independent measurements. Table 7 Melting temperatures (Tm) of conjugates of the present disclosure

hPBMCs = assay: Immunogenicity test in hPBMCs (IL-6 and TNF-α ELISA of supernatant); type: cell-based, human; conditions: 18-20 h
How it was run: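 siRNA conjugates, three-fold serially diluted in water then 10-fold in 1640 medium (5.0% water final), were added in duplicate to PBMCs at 1.6 × 10^6/mL and incubated 18-20 h at 37 °C. TNF-α and IL-6 in supernatant were measured by ELISA; LPS served as positive control.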

PHH cells = assay: Off-target assessment by RNA-sequencing in PHH cells; type: cell-based; conditions: vs PBS, 48 hours; for Downregulated differential genes / Total differential genes / Upregulated differential genes: DESeq2 padj ≤ 0.05 |log2FoldChange| ≥ 1.0
Protocol: • 1.1 Double-stranded siRNA conjugates • 1.2 PHH cells, purchased from Research Institute for Liver Diseases(Shanghai)Co. Ltd. • 1.3 Main reagents: InvitroGRO CP Medium (Cat. No.: BIOIVT-S03316), Fetal Bovine Serum (Cat. No.: ExCellBio-FSP500), Penicillin-Streptomycin (Cat. No.: Hyclone-SV30010), TRLzol Reagent (Cat. No.: Ambion-15596018).
The cryopreserved PHH was taken from the liquid nitrogen and thawed in a water bath at 37 °C. The fully thawed PHH was transferred to a 10% FBS InvitrogRO CP medium and blended well, and counted using a counter. The cell density was adjusted to 6 × 10^5 cells/mL.
siRNAs were diluted with RNase-free PBS to 10 times the final concentration (for example, diluted to 1000 nM if the test concentration is 100 nM). The diluted siRNAs were then added to a collagen-coated 12-well plate at 100 µL/well, with 1 concentration point, 3 replicated wells, and blank PBS as the negative control group. PHH cells at a density of 6 × 10^5 cells/mL were added to the collagen-coated 12-well plate at 900 µL/well. The final concentrations of the test compounds were […]. The cell plates were incubated in a 5% CO2, 37 ° C incubator for 48 hours. After 48 hours, the medium was removed, 600µL of Trizol was added per well to lyse the cells, and sent to Beijing Novogene Co., Ltd. for RNA-sequencing.
NEB Standard Library Preparation: Fragmented mRNAs were used as a template and random oligonucleotides as primers. The first strand of cDNA was synthesized in an M-MuLV reverse transcriptase system. The RNA strand was then degraded with RNaseH, and the second strand of cDNA was synthesized using a DNA polymerase I system with dNTPs as raw materials. The purified double-stranded cDNA underwent end repair, A-tailing, and adapter ligation for sequencing. The cDNA of approximately 250-300 bp was screened out by AMPure XP beads, PCR amplified, and the PCR product was purified again by AMPure XP beads to finally obtain the library. The kit used for library construction was NEBNext® Ultra ™ RNA Library Prep Kit for Illumina.
After the library construction, quantification was primarily performed using a Qubit2.0 Fluorometer, and the library was diluted to 1.5 ng/µL. The insert size of the library was then detected using an Agilent 2100 bioanalyzer. If the insert size meets expectations, the effective concentration of the library was accurately quantified by qRT-PCR (an effective concentration of the library higher than 2nM) to ensure the quality of the library.
After passing quality control of the library, different libraries were pooled according to the effective concentration and target output data volume for Illumina sequencing. The basic principle of sequencing is Sequencing by Synthesis. Four fluorescently labeled dNTPs, DNA polymerase, and adapter primers were added to the sequencing flow cell for amplification. As each sequencing cluster extends the complementary strand, the incorporation of each fluorescently labeled dNTP can release the corresponding fluorescence. The sequencer captures the fluorescence signal and converts the optical signals into sequencing peaks through computer software, thereby obtaining the sequence information of the test fragments.
Experimental results were obtained through software analysis
Differential gene analysis takes DESeq2 padj ≤ 0.05 |log2FoldChange| ≥ 1.0 as the threshold. Table 8. Differential gene statistics

Substance	Melting temperature Tm [1]	IL-6 (hPBMCs; donor 1 hPBMCs, 5 µg/mL)	TNF alpha (hPBMCs; donor 1 hPBMCs, 5 µg/mL)	IL-6 (hPBMCs; donor 1 hPBMCs, 15 µg/mL)	TNF alpha (hPBMCs; donor 1 hPBMCs, 15 µg/mL)	IL-6 (hPBMCs; donor 1 hPBMCs, 45 µg/mL)	TNF alpha (hPBMCs; donor 1 hPBMCs, 45 µg/mL)	Maximum up-regulation folds (PHH cells)	Downregulated differential genes (PHH cells)	Total differential genes (PHH cells)	Upregulated differential genes (PHH cells)	IL-6 (hPBMCs; donor 2 hPBMCs, 5 µg/mL)	TNF alpha (hPBMCs; donor 2 hPBMCs, 5 µg/mL)	IL-6 (hPBMCs; donor 2 hPBMCs, 15 µg/mL)	TNF alpha (hPBMCs; donor 2 hPBMCs, 15 µg/mL)	IL-6 (hPBMCs; donor 2 hPBMCs, 45 µg/mL)	TNF alpha (hPBMCs; donor 2 hPBMCs, 45 µg/mL)
Z42: siRNA conjugate: sense SEQ ID NO:49, ligand D01 at 3' end of sense strand, antisense SEQ ID NO:80 (sense CAGCCCCTTATTGTTATACGA; antisense NCGTATNACAATAAGGGGCNGTT; ligand D01 at sense 3' end; listed as RNA; modified_base 1: mod_base = OTHER; note = 2'-O-methylcytidine; modified_base 2: mod_base = OTHER; note = 2'-O-methyladenosine; modified_base 3: mod_base = OTHER; note = 2'-O-methylguanosine; modified_base 4..7: mod_base = OTHER; note = 2'-O-me; note = n is B33; note = 2'-deoxycytidine; modified_base 4: mod_base = OTHER; note = 2'-O-methyluridine; m)	67.75 °C	1298.3 pg/mL	35.8 pg/mL	1406.8 pg/mL	34.8 pg/mL	1457.0 pg/mL	39.4 pg/mL	1.9	0	4	4	–	–	–	–	–	–
Z46: siRNA conjugate: sense SEQ ID NO:43, ligand D01 at 3' end of sense strand, antisense SEQ ID NO:66 (sense CAGCCCCTTATTGTTANACGA; antisense TCTCGTATNACAATAAGGGGCTG; ligand D01 at sense 3' end; listed as RNA; modified_base 1: mod_base = OTHER; note = 2'-O-methylcytidine; modified_base 2: mod_base = OTHER; note = 2'-O-methyladenosine; modified_base 3: mod_base = OTHER; note = 2'-O-methylguanosine; modified_base 4..7: mod_base = OTHER; note = 2'-O-me; note = 2'-O-methyluridine; modified_base 4: mod_base = OTHER; note = 2'-fluorocytidine; modified_base 5: mod_base = OTHER; note = 2'-O-methylg)	76.75 °C	–	–	–	–	–	–	–	0	0	0	15.0 pg/mL	8.1 pg/mL	88.8 pg/mL	22.8 pg/mL	9.3 pg/mL	10.2 pg/mL

Source: EP4707393A1, “DOUBLE-STRANDED SIRNA, CONJUGATE THEREOF AND USE THEREOF” (CMS Research & Development Pte. Ltd., priority 2023, dated 2024)
